From article PMC8526164

Assays:
[1] = system: AtEndoV (WT) (Arabidopsis thaliana); assay: SPR; conditions: SPR (ProteOn XPR36, NLC chip): PBS, 0.005% Tween 20, pH 7.4, 1 mM EDTA, no divalent metal, 25 C, protein 31.25-500 nM
[2] = system: AtEndoV (Y100A) (Arabidopsis thaliana); assay: SPR; conditions: SPR (ProteOn XPR36, NLC chip): PBS, 0.005% Tween 20, pH 7.4, 1 mM EDTA, no divalent metal, 25 C, protein 31.25-500 nM
[3] = N at position 11 = deoxyinosine

Sequence | Kd ([1]; N at position 11 = inosine) [µM] | Kd ([2]; N at position 11 = inosine) [µM] | Kd [1, 3] [µM] | Kd [2, 3] [µM]
CUGUAUGAUGNAGAUGCUGAC [ssRNA(I) 21-mer] | 0.002 | 0.12 | – | –
CTGTATGATGNAGATGCTGAC [ssDNA(dI) 21-mer] | – | – | 220 | 160
